Read-outs that look alike come from different tables or passages of the source.
B1: hmMM1-40, humanized mMM1-40 monoclonal antibody (antibody, V domains shown)
VH: QVQLVQSGAEVKKPGASVKVSCKASGYIFTRYWMHWVRQAPGQGLEWMGYINPSTGYTEYNQKFKDRVTMTRDTSTSTVYMELSSLRSEDTAVYYCARSDYTNYVFEYWGQGTLVTVSS
VL: DVVMTQSPLSLPVTLGQPASISCRSSQSLVHSNGNTYLHWFQQRPGQSPRRLIYKVSNRFSGVPDRFSGSGSGTDFTLKISRVEAEDVGVYYCSQSTHVPYTFGGGTKVEIK
B2: mMM1-16 monoclonal antibody (mouse variable regions, human IgG1/Igκ constant regions) (antibody, V domains shown)
VH: QIQLQQSGAELARPGASVKLSCKASGYTFITYWIQWVKQRPGQGLEWIGAIYPGDGDTRYTQKFKAKATLTADKSSSTAYMQLSTLTSEDSAVYFCAKGDTYPAAMDYWGQGTSVTVSS
VL: DIQMTQSPASLSASVGETVTITCRTSGNIHNYLAWYQQKQGRSPQLLVNNAKTLADGVPSRFSGSGSGTQYSLKINSLQPEDIGSYYCQHFWITPYTFGGGTKLEIK

How the values were obtained:
Assay in all cases: SPR
[1] = biological target: T1, VACV , residues A3-G181 (vaccinia virus (VACV), UniProt P07612 3-181)
[2] = biological target: T2, MPXV [change], residues A3-G181, C-terminal 6×His tag (pCAGGS, Expi293F) (mpox virus (MPXV))
[3] = biological target: T1, VACV , residues A3-G181; remark: listed apart in the source
[4] = biological target: T2, MPXV [change], residues A3-G181, …; remark: listed apart in the source
[5] = biological target: T1, VACV , residues A3-G181; remark: listed apart in the source

Binder | koff [1] [s⁻¹] | Kd [2] [nM] | Kd [3] [nM] | Kd [4] [nM] | Kd [5] [nM]
B1 | 6.19e-05 | 0.48 | 0.47 |  | 
B2 |  |  |  | 6.3 | 0.72

From article PMC12514038 (2025)
